Results reported in article PMC6499106, “The CXCR4-LASP1-eIF4F Axis Promotes Translation of Oncogenic Proteins in Triple-Negative Breast Cancer Cells” (Frontiers in Oncology, 2019).

Biological target: T1, eIF4E, the cap binding subunit of eIF4F, endogenous in 231S cells (human (endogenous in 231S, MDA-MB-231), UniProt P06730 1-217)
T1 construct: source: endogenous, 231S cells, in lysate, held on m7-GTP agarose beads
Test: pull-down; m7-GTP agarose beads with 1 mg 231S lysate in Co-IP buffer overnight at 4°C; cells stimulated with 20 nM CXCL12 over time, with or without 100 nM AMD3465; eIF4E as precipitate, LASP1 or eIF4G as co-precipitate by Western blot
Details: partners not purified

T1 sequence (P06730 whole entry): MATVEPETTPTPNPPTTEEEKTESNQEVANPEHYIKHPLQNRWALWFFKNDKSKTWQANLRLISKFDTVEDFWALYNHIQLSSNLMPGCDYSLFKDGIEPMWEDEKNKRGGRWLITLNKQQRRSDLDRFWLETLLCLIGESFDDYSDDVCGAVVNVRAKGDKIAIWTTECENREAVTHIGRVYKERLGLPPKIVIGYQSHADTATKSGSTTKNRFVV

fold change of co-precipitate, CXCL12 for 5 min against 0 min: 2.2 fold
B1: LIM and SH3 Protein 1 (LASP1), endogenous in 231S cells (natural protein, human (endogenous in 231S, MDA-MB-231), UniProt Q14847 1-261, looked up)
chain: MNPNCARCGKIVYPTEKVNCLDKFWHKACFHCETCKMTLNMKNYKGYEKKPYCNAHYPKQSFTMVADTPENLRLKQQSELQSQVRYKEEFEKNKGKGFSVVADTPELQRIKKTQDQISNIKYHEEFEKSRMGPSGGEGMEPERRDSQDGSSYRRPLEQQQPHHIPTSAPVYQQPQQQPVAQSYGGYKEPAAPVSIQRSAPGGGGKRYRAVYDYSAADEDEVSFQDGDTIVNVQQIDDGWMYGTVERTGDTGMLPANYVEAI
notes: LIM and SH3 protein 1 (LASP1), endogenous in human 231S breast cancer cells; source: endogenous, 231S (MDA-MB-231 sorted for high CXCR4) cells, in lysate or in situ
